Experiments:
[1] = target: T1, Ser202-phosphorylated PhPINK1 (amino acids 115–575), monomeric (Pediculus humanus corporis, UniProt E0W1I1 115-575, phosphoserine at 202); test: SEC + other: Phos-tag SDS–PAGE; Phos-tag analysis of the oligomer species from the analytical SEC of the mixed proteins; conditions: both partners purified
T1 construct: PINK1 of Pediculus humanus corporis, amino acids 115–575, wild type, autophosphorylated at Ser202 after dephosphorylation; For the analytical SEC the monomer fractions of the SEC run were pooled; also called phospho-PhPINK1; monomeric phosphorylated PhPINK1; not shown: GST, N-terminal, cleaved
T1 sequence (looked up): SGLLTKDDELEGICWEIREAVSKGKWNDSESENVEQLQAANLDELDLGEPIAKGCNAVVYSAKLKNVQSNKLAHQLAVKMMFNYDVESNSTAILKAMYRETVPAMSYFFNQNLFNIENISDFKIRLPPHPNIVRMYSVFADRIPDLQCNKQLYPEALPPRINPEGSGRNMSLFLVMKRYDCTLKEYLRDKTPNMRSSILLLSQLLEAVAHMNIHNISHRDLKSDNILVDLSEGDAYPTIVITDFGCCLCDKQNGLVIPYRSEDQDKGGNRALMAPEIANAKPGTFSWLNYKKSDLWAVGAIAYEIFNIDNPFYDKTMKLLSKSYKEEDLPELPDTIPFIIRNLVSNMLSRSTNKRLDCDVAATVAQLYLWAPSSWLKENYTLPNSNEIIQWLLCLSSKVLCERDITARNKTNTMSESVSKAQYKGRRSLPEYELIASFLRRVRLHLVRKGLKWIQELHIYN

[2] = target: the molecule itself; test: SEC-MALS; Superdex 200 Increase 10/300 GL; 25 mM Tris (pH 8.5), 150 mM NaCl, 5% (v/v) glycerol, 2 mM TCEP; 100 µl of purified protein at 1 mg ml^−1, 0.5 ml min^−1
[3] = target: the molecule itself; test: cross-linking; in vitro disulphide linkage: 1.5 μM PhPINK1 or TcPINK1 with 2 mM H2O2 in 25 mM Tris (pH 7.4), 150 mM NaCl, 22 °C, time course; non-reducing gel, Coomassie

Binder	stoichiometry N [2]	other results
PhPINK1(D334A) (amino acids 115–575), unphosphorylated (enzyme, pOPINK vector, GST tag removed with 3C PreScission protease; also called unphosphorylated PhPINK1(D334A); monomeric PhPINK1(D334A); source: E. coli Rosetta2 (DE3) pLacI, purified (Glutathione Sepharose, 3C cleavage, SEC); not shown: GST, N-terminal, cleaved) SGLLTKDDELEGICWEIREAVSKGKWNDSESENVEQLQAANLDELDLGEPIAKGCNAVVYSAKLKNVQSNKLAHQLAVKMMFNYDVESNSTAILKAMYRETVPAMSYFFNQNLFNIENISDFKIRLPPHPNIVRMYSVFADRIPDLQCNKQLYPEALPPRINPEGSGRNMSLFLVMKRYDCTLKEYLRDKTPNMRSSILLLSQLLEAVAHMNIHNISHRALKSDNILVDLSEGDAYPTIVITDFGCCLCDKQNGLVIPYRSEDQDKGGNRALMAPEIANAKPGTFSWLNYKKSDLWAVGAIAYEIFNIDNPFYDKTMKLLSKSYKEEDLPELPDTIPFIIRNLVSNMLSRSTNKRLDCDVAATVAQLYLWAPSSWLKENYTLPNSNEIIQWLLCLSSKVLCERDITARNKTNTMSESVSKAQYKGRRSLPEYELIASFLRRVRLHLVRKGLKWIQELHIYN	–	stoichiometry N [1]: 1
PhPINK1 (amino acids 143–575) (domain or fragment, Pediculus humanus corporis, UniProt E0W1I1 143-575, looked up, PINK1 of Pediculus humanus corporis, amino acids 143–575, lacking the N-helix; also called PhPINK1 without the N-helix; the shorter PhPINK1 construct) SESENVEQLQAANLDELDLGEPIAKGCNAVVYSAKLKNVQSNKLAHQLAVKMMFNYDVESNSTAILKAMYRETVPAMSYFFNQNLFNIENISDFKIRLPPHPNIVRMYSVFADRIPDLQCNKQLYPEALPPRINPEGSGRNMSLFLVMKRYDCTLKEYLRDKTPNMRSSILLLSQLLEAVAHMNIHNISHRDLKSDNILVDLSEGDAYPTIVITDFGCCLCDKQNGLVIPYRSEDQDKGGNRALMAPEIANAKPGTFSWLNYKKSDLWAVGAIAYEIFNIDNPFYDKTMKLLSKSYKEEDLPELPDTIPFIIRNLVSNMLSRSTNKRLDCDVAATVAQLYLWAPSSWLKENYTLPNSNEIIQWLLCLSSKVLCERDITARNKTNTMSESVSKAQYKGRRSLPEYELIASFLRRVRLHLVRKGLKWIQELHIYN	2	–
PhPINK1(D357A) (amino acids 115–575) (enzyme, Forms a dodecamer (two rings of three dimers); also called oligomeric PhPINK1(D357A); PhPINK1(D357A) dodecamer; source: E. coli Rosetta2 (DE3) pLacI, purified (Glutathione Sepharose, 3C cleavage, Mono Q for EM, SEC); not shown: GST, N-terminal, cleaved) SGLLTKDDELEGICWEIREAVSKGKWNDSESENVEQLQAANLDELDLGEPIAKGCNAVVYSAKLKNVQSNKLAHQLAVKMMFNYDVESNSTAILKAMYRETVPAMSYFFNQNLFNIENISDFKIRLPPHPNIVRMYSVFADRIPDLQCNKQLYPEALPPRINPEGSGRNMSLFLVMKRYDCTLKEYLRDKTPNMRSSILLLSQLLEAVAHMNIHNISHRDLKSDNILVDLSEGDAYPTIVITAFGCCLCDKQNGLVIPYRSEDQDKGGNRALMAPEIANAKPGTFSWLNYKKSDLWAVGAIAYEIFNIDNPFYDKTMKLLSKSYKEEDLPELPDTIPFIIRNLVSNMLSRSTNKRLDCDVAATVAQLYLWAPSSWLKENYTLPNSNEIIQWLLCLSSKVLCERDITARNKTNTMSESVSKAQYKGRRSLPEYELIASFLRRVRLHLVRKGLKWIQELHIYN	2	–
TcPINK1(T172C/D359A) (enzyme, Tribolium castaneum, UniProt D6WMX4 117-570, looked up, PINK1 of Tribolium castaneum with T172C and D359A; also called TcPINK1 with an equivalent T172C mutation; source: E. coli Rosetta2 (DE3) pLacI, purified (Glutathione Sepharose, 3C cleavage, SEC); not shown: GST, N-terminal, cleaved) TGILTKEEELEGVCWEIREAISKIKWQYYDIDESRFESNPITLNDLSLGKPIAKGCNGVVYSAKVKDDETDDNKYPFALKMMFNYDIQSNSMEILKAMYRETVPARMYYSNHDLNNWEIELANRRKHLPPHPNIVAIFSVFTDLIQELEGSKDLYPAALPPRLHPEGEGRNMSLFLLMKRYDCNLQSFLSTAPSTRTSLLLLAQLLEGVAHMTAHGIAHRDLKSDNLLLDTSEPESPILVISAFGCCLADKTNGLSLPYTSYEMDKGGNTALMAPEIICQKPGTFSVLNYSKADLWAVGAIAYEIFNCHNPFYGPSRLKNFNYKEGDLPKLPDEVPTVIQALVANLLKRNPNKRLDPEVAANVCQLFLWAPSTWLKPGLKVPTSGEILQWLLSLTTKVLCEGKINNKSFGEKFTRNWRRTYPEYLLISSFLCRAKLANVRNALHWIQENLPELD	–	binding result [3]: binds

Source: article PMC8828467, “Activation mechanism of PINK1” (Nature, 2021)
